This data set can be described thus: label from the status in PepcDB records.

The record followed here is a protein production outcome set (Wang et al. 2014).
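Further: failed if final PepcDB status was selected cloned or expressed and not failed if soluble or beyond.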

As for “MNVIRLKEDKFREALRLSEYAFQYKVDEDRLQQQITKMKESHEVYGIMEGENLAAKLHLIPFHIYIGKEKFKMGGVAGVATYPEYRRSGYVKELLQHSLQTMKKDGYTVSMLHPFAVSFYRKYGWELCANLLVCHMTKSDLVMKKQVNGTVKRFNKESHPEEVEKLYETFAELFSGMLVRNEKWWLQAVYDDLTLAIYYDENQTAAGYMLYKIENYKMTVEEFVPLHNEARNGLWNFICQHDSMIKDLEMTVSENEPLLYTLQEPRVKTEIKPYFMGRIVDVEQFLKQYELNWNNVQQEVILHITDSFAQWNNITVRIANHEITIIEEPIDKGIKLDINALSTILFGYRRPLELNELELISGSEEEIRAFESVVPVRKPFIYDFF”, the protein production result is “not failed”.

Consider “MNVLLGSVVIFATFVTLCNASCYFIPNEGVPGDSTRKCMDLKGNKHPINSEWQTDNCETCTCYETEISCCTLVSTPVGYDKDNCQRIFKKEDCKYIVVEKKDPKKTCSVSEWII”, for which the protein production result is “not failed”.

Consider “MNVNKPTTEKKLIDLNNDIIHNFDVSIVMSFYKRYTEFRKVLPHNAPYLQRNGIEVIIVLDDPDEKSELLMLLQNYPFINWKLIINERKHAPRNHASVLNVGLKHATKKYILQIDPEVEFLTDIIWQMRDAIEKYPMHYILAMMAYVPYEQELTENNIKELDFIPWGNLMVERNHLYKLHGYDETFITWGGEDNNMRARLDMSGIKKFILPEAKTIHREKNYDPNERSKRINKHSISDWRKMNYPSEAIANKDIWGSEFNKVIYDWQDNQYAKDLCYTYLQQFIGFEIRHPAAFRKRHKKIVLCQAYNEEKLIEGFLTNMANYFDGIILLDDESTDRTWDLAIHDKIILKVKKKRSGFNDLENRNILLDLSAFFQSEWFCFMDIDERFDERFTNFSEFENNKEIHVVSFRGVYLWNDEQSYKGDIPNSNKGILTVYRMFRPIGHTHINTHKKLHFIATPYFTNTWQSNILFKDYGSMKENDRIRKYERYIQEDQQKDMSSGYDYLLNSENLYQLDKIEEYLEHHHHHH”, for which the protein production entry is on record as “failed”.

Take “MNVSTAELLSWVVKSSYLVAATLFLLGLQRMASPLSARSGIRWAGLGMLIATVATFFLPELHNVPLILAALAIGTGVAWWSAKKVAITDMPQMVALYNGMGGGSAAAIGAVELLRFSFFANRDTAHWSAQAVAELAARQPDTAMVVLAVIGSAIGAVSLSGSIIAWAKLDGRLDRRMTFPGQQAFNLAVAVAVLALAIWAAGSLQPLAIIAFFVVALALGVLMTLPIGGADMPVVISLYNAFTGLAVAFEGYVLGNEALIIAGMMVGAAGILLTRLMAKAMNRPISGVLFSNFGGGGQAQEISGVQKPIEAGDVAAMMAFAERVVIVPGYGMAVAQAQHKIWELAQRLMARGVKVKFAIHPVAGRMPGHMNVLLAEAGVPYDLIADMDDINPEFASTDVSLVIGANDVVNPVAKTDSASPIYGMPILDVVNSRNTVVIKRGKGTGFAGIENALFYADNTRMLYGDGAEAAGALVSELKALDGSGH”: the protein production entry was “failed”.

Take “MNVTGKLRGLISFSTVLPLKSEASIEDIASLTLHWPLVGALIGVAVGSAGVAASLVFPGAVVACVAYGFAIWFTGFHHLDGLIDMGDALMSHGSFERKIEIMRDPRIGTGGLGLLLIVSSTTIAAIYSLPQGVLFQGLLIGEVSAKVCLTGCARVSRPLDGGTGRHFIMASRSPFTGMVWIFWAVAAYLLAGVPGAVSVAVAVLSGVFIGLVARRNFYWSTGDVLGASNEVGRMMSLLGLLAAIRLTGL”: the protein production entry was “failed”.

Take “MNVVQVEYLNVAEIKALLNSTISKLNPRYTSNYMIVTAILTGARLSEIAGLTWNDINFNFNTININKSYDYFAKSFKPTKNKSSNRIIKINNTLCDVLKELRTNNTDLVFKNKRGLIPTSNAVNKALRARLEELNINRRNFHFHSLRHSHVAFLLSQGIDIYPIAQRLGHSDITTTTRTYAYLIEEYKDKNDAIIIAGLDKLEHHHHHH”: the protein production entry was “failed”.

As to “MNWIPLEQLLLKLHTPRAVSAAPAIDLGAVQEQALSLAAALQARGVRRLAVHLEDAVELAVALLGAWRAGASVLLPADLQAQTRQRWSSEVDLWLTDQDTPLHQLQASPLAPAELDPDTCQLSLCTSGSSGEPKRIEKNLRQLANEVVALEHLWGADLGQAWIIGSVATQHIYGLLFRVLWPLCAGRPFVRRQLPFPEDLQRASRECPAFAWVASPALLKRMGDNLDWPALSQVRRVFSSGGALPAEAASGLHQRLQQWPTEILGSSETGGIAWRQGPGLWQPFADVRLSQDADGALLIASPYLPAGHVEHTADAARIAADGRFELLGRLDRIVKLEEKRISLPMLEQALASHEWVAEARLGVIEDNRAYLGALLVLSEPGLHALRNQGRRHLTQALRQHLAGHCEALALPRRWRLVRQLPLNSQGKLPQAQVQALLLAPRPQAPEVLEQRQHEEEWQLQLAIPPDLAYFSGHFPQTPVLPGVVQVDWALALGQQLLELPGRFAGMEVLKFQQLVRPGDRIQLNLRFDAQRQKLYFAYLNDGAPCSCGRIVLEASCG”, the protein production entry is “failed”.

Take “MNYHWSDHPDPNKWADCVHCGMCLEACPTYELTGHEQQSPRGRVHLIKSVAEGKLEVNEAFADPVFTCLDCRACETACPADVEVGGLIEEARGQIRQALPLSGWKLEHHHHHH”: the protein production entry is given as “failed”.

With “MNYRNKAFLKYEEDYFIERIIKALKDYEEIIIISNNPEEYKEFGLKVFKDIYPSQGPLSGIHSALNHIKNDYCLVVACDMPFINKDVVNYLGNIKEDYEILIPKFQERLQPLCAIYKKSCKDIMEKELINNSNKLIKTCFKFSMKVVEEFPFIEKVHKKEIKNFYNINTVDEYEDLIKKKEILEHHHHHH”, the protein production entry is on record as “failed”.

“MNYSTLTSVLLCLLLGAPAWADHYQVVTEEWAPYNYEENGQLTGMTTEIVRAIMAVSGNDFNIVLAPSMRASHTLQMRPKTIMYSMFRTPEREVLYKWVGPIVEESVHPYQLATAAPVTSLEQLLHAPQITTRHAGLLPDMLQSLGFKNLDKSAAQSVQLYRMLLNGRTAIIIGDTDAGVAYQSRQLNIAPGTLRQIPIELYRSSLYIAFSRDCEDELVASWARALETLRQSGELERIQRRYEQLVGQ”: the protein production result is recorded as “failed”.

Turning to “MPAAAYWLPASDETPLYTRHWPSATAVGAVMLSHGMAEHAGRYERLAAALNAAGYHFYAIDQRGHGRTAEADELGHFADQGGWGKVVGDLASLNHHIRQQHPELPIFLLGHSMGSYISMAYLLHHSCSLQGAILSGSNYQPQALYRIARLIARFERWRQGPLGKSALIDFLSFGSFNKAFKPNRTAFDWLSRDPQEVDRYVADPLCGFRCSNQLWVDLLGGLADITPPTHLRQIDADLPLLIIGGERDPVSQGKRLGDLADALRGAGLRQVTLKTYPEARHELFNESNRDAVTQDLIDWLEQALRHRRDHST”, the protein production result is reported as “failed”.

With “MPAGLVISAPASGVGKTTLTLALARAWRNRGLSVQCFKSGPDYIDPAFHAAATGRASVNVDSWAMDRGGIAHLVGRGADADVVLAEGSMGLFDGVAARGVSGTGATADIAEMLGWPVLLVIDPSGQAQTAAAIAAGLRDYRPGVRLAGVVLNRVASPRHEDLVRRALDDAGIAVFGALPRHAEISLPKRHLGLVQAEEQAEIGKLIDEAARFVAEHVDLDAVLQSAAAWAPQPAANGLNVTPPGQRIALARDAAFSFVYPHMLEAWRAAGADISTFSPLADEAPDASADVCWLPGGYPELHAGKIAANARFCSGLRAFAETRPVHGECGGYMVLGTALTDADGVRHEMAGLLGLETSFAKRRMHLGYRLAELAAPMPGHSPGARLRGHEFHYSTIAAQPDMPLAVVHDATGAVIAETGSRRGNATGTFFHLIAEDRLEHHHHHH”, the protein production entry is on record as “not failed”.

Take “MPAITRRALSAGLIAAVALSVLPFAAQAAEELKIGYQKTGLPVIARQQGVIEKALEAKGVKVSWVEFTAGPPLVEALNVGSINVGWTGDAPPIFGQAAGSAIVYVAALPSNGKGEAIFTKPESGIKSVADLKGKKVGVGKGTSAHNLLVAALEKNGLKLSDIDVTYLSPADAAAAFASDKIDAWAVWDPFYAIAETRYKPVTLARTSDVLDVKTYFLANRDYAKSHADTINTNVGALGEAAKWSAANRDKVAAALHEVTGVPLEAQTLAANRSEFGITRIDDKIVASQQETADRFYRLGLIPKQISIKDAVWSGATN”: the protein production entry is on record as “failed”.

Regarding “MPAKPIDLGPLHFAKRGDAVAYLNDMLHRYDVGDRVGANDTVILRAALEHHPDAEAKKGCGITHFNVRTADFGTKCFWLNRTDGTTEKFSHRACIYGT”, the protein production result is “failed”.

Take “MPALACVDTSFVPPAYAFSDTAGDVFIPASSPTSAAVVVDRWSPSLSSSLYRIDGWGAPYFIANSSGNISVRPHGSETLPHQDIDLLKIVKKVTGPKSSGGLGLQLPLIVRFPDVLKNRLECLQSAFDYAIKSQGYDSHYQGVYPVKCNQDRFVVEDIVKFGSSFRFGLEAGSKPEILLAMSCLCKGSPDAFLVCNGFKDAEYISLALLGRKLALNTVIVLEQEEELDLVIELSQKMNVRPVIGLRAKLRTKHSGHFGSTSGEKGKFGLTTTQIVRVVRKLRQSGMLDCLQLLHFHIGSQIPSTSLLSDGVAEAAQLYCELVRLGAHMKVIDIGGGLGIDYDGSKSGESDLSVAYSLEEYAEAVVASVRVVCDRSSVKHPVICSESGRAIVSHHSVLIFEAVSADKPMVHQATPGDIQFLLEGNEEARANYEDLYAAVMRGDHESCLLYVDQLKQRCVEGFKEGVLSIEQLASVDGLCEWVLKAIGASDPVHTYNINLSVFTSIPDLWGIDQLFPIVPIHKLDQRPGARGILSDLTCDSDGKINKFIGGESSLPLHELDKNGSGGRYFLGMFLGGAYEEALGGVHNLFGGPSVVRVSQSDGPHSFAVTRAVPGQSSADVLRAMQHEPELMFQTLKHRAEEMMHTKGGSEGENEEEEEDDEFNNVAASLDRSFHNMPYLATEQASPSNSLSAAISNLGFYYCDEDVYDYISA”: the protein production result is “failed”.

Regarding “MPALITYRTTVQEDWVDYNGHLRDAFYLLIFSYATDALMDRIGLDADSRGQSGNSLFTLEAHINYLHEVKLGTEVWVQTQILGFDRKRLHVYHSLHRAGFDEVLAASEQMLLHVDLAGPQSAPFGHTTVCRLNHLVEQQEGAQAPQYMGRTIKLPA”, the protein production result is recorded as “not failed”.

As for “MPANKKEGLIFGVMMCFGMVCVMSIYNAIINRAIYDFSLMTVFEMVIGFMIALLLDLLLVGPLAKKIAFRMPFDKTKKIYVILAMSTCMVIGMVLCMSVFGLVTAVLANGLNGDSLFSAYLMIVLKNFILAYPLQLLIMGPLVRGVFMKFVKPKLTAAI”, the protein production entry is recorded as “failed”.

With “MPAPLSIVIPTLQAESSLPRLLEALIEGLPNGLIREVIVSDGGSQDATRAIAEAAGAQVLNGPPSRGGQLRHGCDAARGDWLLVLHADTLPDPGWAGVVADHIAAREDAACFRLAFRARGPGAAWVAGWANLRTRLFGLPYGDQGLLIRRRDYQTAGGYPDQLLMEDVHLVRALSRAPVLLPHRALTGAERYLRSGWLRRGARNLWTLMRYFAGTDPEALARAYRRLEHHHHHH”, the protein production entry was “failed”.
